# Measured values from article PMC2873993, “Comparative Therapeutic Effects of Velaglucerase Alfa and Imiglucerase in a Gaucher Disease Mouse Model” (PLoS ONE, 2010).
# Where a chain is given by its changes, count along the chain named. Read-outs that look alike come from different tables or passages of the source.
# B1: velaglucerase alfa (protein)
# chain: ARPCIPKSFGYSSVVCVCNATYCDSFDPPTFPALGTFSRYESTRSGRRMELSMGPIQANHTGTGLLLTLQPEQKFQKVKGFGGAMTDAAALNILALSPPAQNLLLKSYFSEEGIGYNIIRVPMASCDFSIRTYTYADTPDDFQLHNFSLPEEDTKLKIPLIHRALQLAQRPVSLLASPWTSPTWLKTNGAVNGKGSLKGQPGDIYHQTWARYFVKFLDAYAEHKLQFWAVTAENEPSAGLLSGYPFQCLGFTPEHQRDFIARDLGPTLANSTHHNVRLLMLDDQRLLLPHWAKVVLTDPEAAKYVHGIAVHWYLDFLAPAKATLGETHRLFPNTMLFASEACVGSKFWEQSVRLGSWDRGMQYSHSIITNLLYHVVGWTDWNLALNPEGGPNWVRNFVDSPIIVDITKDTFYKQPMFYHLGHFSKFIPEGSQRVGLVASQKNDLDAVALMHPDGSAVVVVLNRSSKDVPLTIKDPAVGFLETISPGYSIHTYLWRRQ
# modifications: N-linked oligosaccharides with higher α-mannosyl content (predominant number of mannoses is 9)
# B2: imiglucerase (protein)
# chain: B1 chain with R495H
# modifications: short N-linked oligosaccharide chains with ~3 exposed α-mannosyl residues
# Columns and labels:
# [1] = Serum GCase activity, CRIM and CRIM-SA after i.v. bolus; settings: for Recovery of injected activity in serum: 60 U/kg bolus, peak 2 min, % ± SE
# [2] = Tissue GCase activity, CRIM and CRIM-SA (liver, spleen, lung) after i.v. bolus; settings: for Recovery of injected activity in liver / Recovery of injected activity in lung / Recovery of injected activity in spleen: 60 U/kg bolus, % ± SE; for peak liver activity relative to WT: 20 min
# 9 V/null mice [3] = test: Mouse anti-human GCase IgG ELISA
# 9 V/null mice [4] = test: Total serum IgE ELISA in mice that died after injection; settings: mice that died after 4 or 5 injections of 60 U/kg/wk, n = 3
# cathepsin D = test: Protease susceptibility to cathepsin D digestion; format: biochemical; settings: for degradation by cathepsin D after 4 h: cathepsin D 1 µg/ml; for degradation by cathepsin D within 4 h: cathepsin D 2 µg/ml
# Description: Vela and Imig were compared for kinetic properties as described. Briefly, the standard GCase activity assay contained final concentrations of 50 mM citrate/phosphate, pH 5.5, 0.25% TC, 0.25% TX, and 4 mM 4MU-Glc in 200 µl. The reactions were stopped after incubation (30–60 min, 37°C) using 0.9 M ethylenediamine, pH 11.0 (100 µl). Standard curves for 4-MU fluorescence yield were generated for each assay with Ex/Em 460/515 nm (Molecular Dynamics SpectraMax GeminXS spectrofluorometer). […] For the reversible competitive inhibitors, Ki was calculated from IC50 = Ki (1+ [I]/[Km]). The IC50 or Ki values for various inhibitors (dNM and its derivatives, CBE, CS, IFG, DNPFG) were determined using 4MU-Glc as substrate. Activities with the NBD-GC substrate were as described. Enzyme assays with saposin C (0–500 nM/0.5 µM BPS) and BPS (0–2 µM) were as described, [40]. Saposin C was expressed in E. coli and purified as described. For thermostability assessments, equal amounts of Vela and Imig activities were added to 50 mM citrate/phosphate, pH 7.4, with or without human/mouse serum, and incubated for 0–240 min at 25 or 37°C. The pH optimum profiles were developed using 50 mM citrate/phosphate, pH 4.4–7.2. […] All assays were conducted in triplicate and repeated at least twice. The amounts of intact enzyme were determined from density measurements on immunoblots and were compared to the initial amounts. The ratios of intact enzyme with and without cathepsin D were used as indicators of the enzyme's proteolytic susceptibility.
# [5] = mouse, in vivo, iv
# [6] = mouse, in vivo
# patients = settings: human, in vivo; cited from earlier work
# 9 V/null mice [7] = settings: mouse, in vivo
# [8] = 5-wk 9 V/null mice, peak 20 min
# [9] = 5-wk 9 V/null mice, 60 U/kg i.v.
# [10] = 20-wk 9 V/null mice, peak 20 min
# [11] = 20-wk 9 V/null mice, 60 U/kg i.v.
molecule,measurement,setting,value
B1,Recovery of injected activity in serum,[1]; 5-wk 9 V/null mice,63.06±4.62%
same,serum activity by 20 min post-injection,"[1]; 9 V/null mice, 60 U/kg i.v.",< 10 % of the 2-min values
same,t½ of clearance of GCase activity in serum,"[1]; 9 V/null mice, 60 U/kg i.v.",8 to 11 min
same,Recovery of injected activity in serum,[1]; 20-wk 9 V/null mice,58.16±1.61%
same,catalytic value (CRIM-SA) of intact enzyme remaining in serum by 20 min,[1]; 60 U/kg i.v.,< 10 % of its original catalytic value
same,t½ of GCase CRIM disappearance in serum,"[1]; both age groups, 60 U/kg i.v.",~0.217 h
same,Recovery of injected activity in liver,[2]; [8],57.53±1.35%
same,Recovery of injected activity in lung,[2]; [8],0.1±0.01%
same,Recovery of injected activity in spleen,"[2]; 5-wk 9 V/null mice, peak 40 min",1.86±0.06%
same,drop of liver activity within 40 min,[2]; [9],about 60%
same,liver GCase activity by 42 h,[2]; [9],13–18 % of WT
same,peak spleen activity lower than in 20-wk mice,[2]; [9],2- to 3 fold
same,splenic CRIM-SA,[2]; [9],0.2–0.8×10^6 nmoles/h/mg enzyme protein
same,time liver activity remained at ≥WT level,[2]; [9],70 to 80 min
same,t½ of CRIM levels in spleen,[2]; [9],~2 h
same,t½ of activity disappearance in liver,[2]; [9],about 60 min
same,peak liver activity relative to WT,[2]; [9],~2.5 fold
same,Recovery of injected activity in liver,[2]; [10],60.36±2.01%
same,Recovery of injected activity in lung,[2]; [10],0.04±0.01%
same,Recovery of injected activity in spleen,[2]; [10],2.62±0.08%
same,decrease of liver GCase activity within 40 min,[2]; [11],~30%
same,decrease of spleen enzyme activity by 40 min,[2]; [11],~40%
same,liver GCase activity by 42 h,[2]; [11],13–15 % of WT
same,time liver activity remained at or above WT levels,[2]; [11],3 h
same,time spleen activity remained at ≥WT levels,[2]; [11],~3.5 h
same,t½ of CRIM disappearance in liver,[2]; [11],1.5 to 1.83 h
same,t½ of GCase activity disappearance in liver,[2]; [11],~1.67 h
same,t½ of GCase protein disappearance in spleen,[2]; [11],1.0 to 1.5 h
same,peak liver activity relative to WT,[2]; [11],2.5- to 3.5 fold
same,peak spleen activity relative to WT,"[2]; 20-wk 9 V/null mice, 20 min post-injection, 60 U/kg i.v.",3- to 4.5 fold
same,time liver activity remained at ≥WT level,"[2]; 20-wk 9 V/null mice, as restated",~180 min
same,enzyme recovered in spleens and lungs,"[2]; after bolus i.v. injections, abstract",< 5%
same,injected enzyme recovered from the liver,"[2]; intravenous bolus, discussion",≥ 60%
same,serum anti-GCase IgG signals,"9 V/null mice [3]; 5 or 15 U/kg/wk, each bleed",at background or very low levels
same,injected mice with increased serum anti-GCase IgG,"9 V/null mice [3]; 60 U/kg/wk, by the 4th injection",> 50%
same,increase of serum anti-GCase IgG levels above background,"9 V/null mice [3]; 60 U/kg/wk, by the 4th injection, at ∼3×10^3 dilution",~3 fold
same,Total serum IgE levels,9 V/null mice [4],46.4 to 234.9 ng/mL
same,degradation by cathepsin D after 4 h,cathepsin D,72–76%
same,degradation by cathepsin D within 4 h,cathepsin D,completely degraded
B2,serum activity by 20 min post-injection,[5],< 10 % of the 2-min values
same,t½ of GCase CRIM disappearance in serum,[5],~0.217 h
same,t½ of clearance of GCase activity in serum,[5],8 to 11 min
same,catalytic value (CRIM-SA) of intact enzyme remaining in serum by 20 min,[5]; 20 min,< 10 % of its original catalytic value
same,time liver activity remained at ≥WT level,[6],~180 min
same,decrease of spleen enzyme activity by 40 min,[6]; iv,~40%
same,enzyme localized to the liver interstitial cells,[6]; iv,≥ 80%
same,enzyme recovered in spleens and lungs,[6]; iv,< 5%
same,injected enzyme recovered from the liver,[6]; iv,≥ 60%
same,peak spleen activity lower than in 20-wk mice,[6]; iv,2- to 3 fold
same,t½ of CRIM disappearance in liver,[6]; iv,1.5 to 1.83 h
same,t½ of CRIM levels in spleen,[6]; iv,~1 h
same,t½ of GCase activity disappearance in liver,[6]; iv,~1.67 h
same,t½ of GCase protein disappearance in spleen,[6]; iv,1.0 to 1.5 h
same,t½ of activity disappearance in liver,[6]; iv,about 60 min
same,documented IgE-mediated or anaphylactic reactions,patients,< 1%
same,patients who developed an IgG antibody response,patients,13–15%
same,injected mice with increased serum anti-GCase IgG,9 V/null mice [7],> 50%
same,degradation by cathepsin D after 4 h,cathepsin D,72–76%
same,degradation by cathepsin D within 4 h,cathepsin D,completely degraded
